Test results as given in the PETadex activity labels (doi:10.1021/ma200949p).
Residue numbers refer to the chain shown, from its start.

What was measured:
p-NP-C2 = details: pH 7, 25 °C
p-NP-C4 = details: pH 7, 25 °C
pNP-C2 [1] = assay: Proxy for plastic degradation [Km]; details: pH 7
pNPB [2] = assay: Proxy for plastic degradation [Km]; details: pH 7
pNP-C2 [3] = assay: Proxy for plastic degradation [kcat] (s⁻¹); details: pH 7
pNPB [4] = assay: Proxy for plastic degradation [kcat] (s⁻¹); details: pH 7
PET [5] = assay: Proxy for plastic degradation [Released monomer concentration (HPLC/LC-MS) (BA)]; details: pH 7
PET [6] = assay: Proxy for plastic degradation [Released monomer concentration (HPLC/LC-MS) (HEB)]; details: pH 7
MHET = assay: Proxy for plastic degradation [Released monomer concentration (HPLC/LC-MS) (MHET)]; details: pH 7
PET [7] = assay: Proxy for plastic degradation [Released monomer concentration (HPLC/LC-MS) (MHET+BA, TA, HEB)]; details: pH 7
PET [8] = assay: Proxy for plastic degradation [Released monomer concentration (HPLC/LC-MS) (TPA)] (mmol/mol enzyme); details: pH 7
PET [9] = assay: Proxy for plastic degradation [Released monomer concentration (HPLC/LC-MS) (TPA+MHET+BA+HEB)] (mmol/mol enzyme); details: pH 7
PET [10] = assay: Proxy for plastic degradation [Released monomer concentration (HPLC/LC-MS) (BA (benzoic acid))] (mmol/mol enzyme); details: pH 7
PET [11] = assay: Proxy for plastic degradation [Released monomer concentration (HPLC/LC-MS) (HEB (2-hydroxyethyl benzoate))] (mmol/mol enzyme); details: pH 7
PET [12] = assay: Proxy for plastic degradation [Water contact angle]; details: pH 7
PET [13] = assay: Proxy for plastic degradation [Surface fluorescence after BrNP labelling]; details: pH 7; part of the chain shown

B1: unnamed (protein)
chain: MANPYERGPNPTDALLEARSGPFSVSEERASRFGADGFGGGTIYYPRENNTYGAVAISPGYTGTQASVAWLGERIASHGFVVITIDTNTTLDQPDSRARQLNAALDYMINDASSAVRSRIDSSRLAVMGHSMGGGGTLRLASQRPDLKAAIPLTPWHLNKNWSSVRVPTLIIGADLDTIAPVLTHARPFYNSLPTSISKAYLELDGATHFAPNIPNKIIGKYSVAWLKRFVDNDTRYTQFLCPGPRDGLFGEVEEYRSTCPF
p-NP-C2; part of the chain shown
  Km: 200 µM
  kcat: 2.4 s⁻¹
  kcat/Km: 12000 M⁻¹ s⁻¹
p-NP-C4; part of the chain shown
  Km: 2130 µM
  kcat: 5.3 s⁻¹
  kcat/Km: 2480 M⁻¹ s⁻¹
pNP-C2 [1]; part of the chain shown
  Proxy for plastic degradation: 200 µM
pNPB [2]; part of the chain shown
  Proxy for plastic degradation: 2130 µM
pNP-C2 [3]; part of the chain shown
  Proxy for plastic degradation: 2.4
pNPB [4]; part of the chain shown
  Proxy for plastic degradation: 5.3
PET [5]; part of the chain shown
  Proxy for plastic degradation: 28 mmol/mol
PET [6]; part of the chain shown
  Proxy for plastic degradation: 29 mmol/mol
MHET; 50 °C, part of the chain shown
  Proxy for plastic degradation: 13 mmol/mol
MHET; part of the chain shown
  Proxy for plastic degradation: 18 mmol/mol
PET [7]; part of the chain shown
  Proxy for plastic degradation: 76 mmol/mol
PET [8]; part of the chain shown
  Proxy for plastic degradation: 5
PET [9]; 2 h, part of the chain shown
  Proxy for plastic degradation: 90
PET [10]; part of the chain shown
  Proxy for plastic degradation: 27.9
PET [11]; part of the chain shown
  Proxy for plastic degradation: 28.6

B2: unnamed (protein)
chain: MANPYERGPNPTDALLEARSGPFSVSEENVSRLSASGFGGGTIYYPRENNTYGAVAISPGYTGTEASIAWLGERIASHGFVVITIDTITTLDQPDSRAEQLNAALNHMINRASSTVRSRIDSSRLAVMGHSMGGGGSLRLASQRPDLKAAIPLTPWHLNKNWSSVRVPTLIIGADLDTIAPVLTHARPFYNSLPTSISKAYLELDGATHFAPNIPNKIIGKYSVAWLKRFVDNDTRYTQFLCPGPRDGLFGEVEEYRSTCPF
p-NP-C2
  Km: 167 µM
  kcat: 39.5 s⁻¹
  kcat/Km: 237000 M⁻¹ s⁻¹
p-NP-C4
  Km: 2100 µM
  kcat: 30.9 s⁻¹
  kcat/Km: 14700 M⁻¹ s⁻¹
pNP-C2 [1]
  Proxy for plastic degradation: 167 µM
pNPB [2]
  Proxy for plastic degradation: 2100 µM
pNP-C2 [3]
  Proxy for plastic degradation: 39.5
pNPB [4]
  Proxy for plastic degradation: 30.9
PET [12]
  Proxy for plastic degradation: 71.2 °
PET [8]
  Proxy for plastic degradation: 42
PET [9]; 2 h
  Proxy for plastic degradation: 64
PET [9]; 24 h
  Proxy for plastic degradation: 830
PET [9]; 72 h
  Proxy for plastic degradation: 1820
PET [10]
  Proxy for plastic degradation: 22.7
PET [11]
  Proxy for plastic degradation: 23.4

B3: unnamed (protein)
chain: B2 chain with R19S, S137T, R166T, L183A, R187K, T195S
p-NP-C2; part of the chain shown
  Km: 127 µM
  kcat: 212 s⁻¹
  kcat/Km: 1.67e+06 M⁻¹ s⁻¹
p-NP-C4; part of the chain shown
  Km: 1480 µM
  kcat: 195 s⁻¹
  kcat/Km: 132000 M⁻¹ s⁻¹
pNP-C2 [1]; part of the chain shown
  Proxy for plastic degradation: 127 µM
pNPB [2]; part of the chain shown
  Proxy for plastic degradation: 1480 µM
pNP-C2 [3]; part of the chain shown
  Proxy for plastic degradation: 212
pNPB [4]; part of the chain shown
  Proxy for plastic degradation: 195
PET [12]; part of the chain shown
  Proxy for plastic degradation: 66.3 °
PET [13]
  Proxy for plastic degradation: 1540 AU
PET [5]; part of the chain shown
  Proxy for plastic degradation: 48 mmol/mol
PET [6]; part of the chain shown
  Proxy for plastic degradation: 32 mmol/mol
MHET; 50 °C, part of the chain shown
  Proxy for plastic degradation: 5 mmol/mol
MHET; part of the chain shown
  Proxy for plastic degradation: 25 mmol/mol
PET [7]; part of the chain shown
  Proxy for plastic degradation: 63 mmol/mol
PET [8]; part of the chain shown
  Proxy for plastic degradation: 56
PET [9]; 2 h, part of the chain shown
  Proxy for plastic degradation: 119
PET [10]; part of the chain shown
  Proxy for plastic degradation: 48.9
PET [11]; part of the chain shown
  Proxy for plastic degradation: 32

B4: unnamed (protein)
chain: MAVMTPRRERSSLLSRALQVTAAAATALVTAVSLAAPAHAANPYERGPNPTDALLEASSGPFSVSEENVSRLSASGFGGGTIYYPRENNTYGAVAISPGYTGTEASIAWLGERIASHGFVVITIDTITTLDQPDSRAEQLNAALNHMINRASSTVRSRIDSSRLAVMGHSMGGGGTLRLASQRPDLKAAIPLTPWHLNKNWSSVTVPTLIIGADLDTIAPVATHAKPFYNSLPSSISKAYLELDGATHFAPNIPNKIIGKYSVAWLKRFVDNDTRYTQFLCPGPRDGLFGEVEEYRSTCPF
pNPB [2]
  Proxy for plastic degradation: 2100 µM
pNPB [4]
  Proxy for plastic degradation: 30.9
PET [5]
  Proxy for plastic degradation: 23 mmol/mol
PET [6]
  Proxy for plastic degradation: 22 mmol/mol
MHET
  Proxy for plastic degradation: 15 mmol/mol
MHET; 50 °C
  Proxy for plastic degradation: 7 mmol/mol
PET [7]
  Proxy for plastic degradation: 49 mmol/mol
